Assay results: US20120288878A1

Tests used:
[1] = target: mutant membrane-bound TNFα on stably transfected CHO cells (B-220 cells) (UniProt P01375); experiment: FACS, gate P4: CHO cells bound to anti-CD19 beads (FIG. 3 middle panel)
[2] = target: mutant membrane-bound TNFα on stably transfected CHO cells (B-220 cells) (UniProt P01375); experiment: FACS, gate P4: CHO cells bound to anti-CD19 beads, mixed beads (FIG. 4)

UniProt P01375, sequence (P01375 other isoform, or with tags, fused parts or gaps mutant limits assumed): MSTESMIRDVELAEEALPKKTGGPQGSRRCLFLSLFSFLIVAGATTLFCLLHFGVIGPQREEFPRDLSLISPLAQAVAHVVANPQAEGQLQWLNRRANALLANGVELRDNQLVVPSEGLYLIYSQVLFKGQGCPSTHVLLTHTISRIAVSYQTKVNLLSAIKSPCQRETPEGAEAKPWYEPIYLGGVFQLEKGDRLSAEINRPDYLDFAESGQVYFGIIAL

# Events [1]: 6 events | # Events [2]: 2 events
Substance: APC-labeled unrelated antibody (anti-CD19) coated on beads
